Experimental data taken from patent US20170296640A1 (IMMATICS BIOTECHNOLOGIES, published 2017).

Biological target: T1, HLA-A*02:01 (peptide-receptive MHC class I monomer after UV cleavage of the UV-sensitive ligand) (human)
T1 construct: MHC monomers loaded by UV-ligand exchange and captured on streptavidin plates
Assay: UV ligand-exchange ELISA; exchange yield grade (+ >=10%, ++ >=20%, +++ >=50%, ++++ >=75%)
Method in brief: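 Binding capacity is expressed as the yield of UV-mediated ligand exchange, reflecting how well each peptide stabilizes peptide-receptive MHC. Stabilized complexes are read out by anti-β2m HRP ELISA (450 nm) after streptavidin capture, with refolded MLA-001 monomer standards for quantitation.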

peptide exchange yield [%] | Binder
50 to 75 | KLDHTLSQI [KLDHTLSQI (SEQ ID NO: 272)]
50 to 75 | GLLPKLTAL [GLLPKLTAL (SEQ ID NO: 47)]
50 to 75 | KILDEDLYI [KILDEDLYI (SEQ ID NO: 48)]
≥ 75 | GLAMVEAISYV [GLAMVEAISYV (SEQ ID NO: 293)]
≥ 75 | TLQTVPLTTV [TLQTVPLTTV (SEQ ID NO: 281)]
50 to 75 | RLLEEEGVSL [RLLEEEGVSL (SEQ ID NO: 299)]
≥ 75 | KLMDLEDCAL [KLMDLEDCAL (SEQ ID NO: 275)]
50 to 75 | SLAAVSQQL [SLAAVSQQL (SEQ ID NO: 295)]
50 to 75 | FIIEEQSFL [FIIEEQSFL (SEQ ID NO: 44)]
50 to 75 | LQFDGIHVV [LQFDGIHVV (SEQ ID NO: 301)]
50 to 75 | VLNEDELPSV [VLNEDELPSV (SEQ ID NO: 32)]
≥ 75 | VLQNVAFSV [VLQNVAFSV (SEQ ID NO: 269)]
≥ 75 | KLYDEESLL [KLYDEESLL (SEQ ID NO: 31)]
50 to 75 | SLSSERYYL [SLSSERYYL (SEQ ID NO: 35)]
≥ 75 | SLLAANNLL [SLLAANNLL (SEQ ID NO: 289)]
50 to 75 | KLQEQIHRV [KLQEQIHRV (SEQ ID NO: 284)]
50 to 75 | FLSNANPSL [FLSNANPSL (SEQ ID NO: 28)]
20 to 50 | LIDDKGTIKL [LIDDKGTIKL (SEQ ID NO: 314)]
≥ 75 | KLLNLISKL [KLLNLISKL (SEQ ID NO: 274)]
50 to 75 | ALMPVTPQA [ALMPVTPQA (SEQ ID NO: 283)]
50 to 75 | SITAVTPLL [SITAVTPLL (SEQ ID NO: 285)]
50 to 75 | HLTEDTPKV [HLTEDTPKV (SEQ ID NO: 286)]
50 to 75 | FLVEEIFQT [FLVEEIFQT (SEQ ID NO: 46)]
≥ 75 | ILASIFETV [ILASIFETV (SEQ ID NO: 41)]

peptide exchange yield [%] | Binder
≥ 75 | FVWEASHYL [FVWEASHYL (SEQ ID NO: 303)]
50 to 75 | ALLEGVKNV [ALLEGVKNV (SEQ ID NO: 43)]
50 to 75 | VMAEAPPGV [VMAEAPPGV (SEQ ID NO: 310)]
50 to 75 | VLGNALEGV [VLGNALEGV (SEQ ID NO: 37)]
≥ 75 | ILMGHSLYM [ILMGHSLYM (SEQ ID NO: 287)]
20 to 50 | YLTAEILELAGN [YLTAEILELAGN (SEQ ID NO: 38)]
50 to 75 | QLLPQGIVPAL [QLLPQGIVPAL (SEQ ID NO: 39)]
50 to 75 | FLLPVAVKL [FLLPVAVKL (SEQ ID NO: 307)]
50 to 75 | ILSDVTQGL [ILSDVTQGL (SEQ ID NO: 29)]
50 to 75 | KIIDTAGLSEA [KIIDTAGLSEA (SEQ ID NO: 291)]
≥ 75 | VVVDSDSLAFV [VVVDSDSLAFV (SEQ ID NO: 270)]
50 to 75 | SLAELDEKISA [SLAELDEKISA (SEQ ID NO: 302)]
≥ 75 | YLLEQGAQV [YLLEQGAQV (SEQ ID NO: 282)]
20 to 50 | AILLPQPPK [AILLPQPPK (SEQ ID NO: 273)]
50 to 75 | KLINSQISL [KLINSQISL (SEQ ID NO: 292)]
≥ 75 | FLNSVIVDL [FLNSVIVDL (SEQ ID NO: 40)]
≥ 75 | YLQDLVERA [YLQDLVERA (SEQ ID NO: 42)]
50 to 75 | LLWEDGVTEA [LLWEDGVTEA (SEQ ID NO: 34)]
50 to 75 | YLHRQVAAV [YLHRQVAAV (SEQ ID NO: 311)]
50 to 75 | AQVALVNEV [AQVALVNEV (SEQ ID NO: 306)]
50 to 75 | RLAPEIVSA [RLAPEIVSA (SEQ ID NO: 288)]
50 to 75 | LTIDTQYYL [LTIDTQYYL (SEQ ID NO: 3)]
≥ 75 | YLLDQPVLEQRL [YLLDQPVLEQRL (SEQ ID NO: 271)]
50 to 75 | VILDIPLLFET [VILDIPLLFET (SEQ ID NO: 36)]

peptide exchange yield [%] | Binder
50 to 75 | FILDDSALYL [FILDDSALYL (SEQ ID NO: 45)]
≥ 75 | LLANIVPIAMLV [LLANIVPIAMLV (SEQ ID NO: 33)]
50 to 75 | AMLAQQMQL [AMLAQQMQL (SEQ ID NO: 305)]
50 to 75 | ILSTLDVEL [ILSTLDVEL (SEQ ID NO: 30)]
≥ 75 | VLFPLPTPL [VLFPLPTPL (SEQ ID NO: 268)]
20 to 50 | NMISYVVHL [NMISYVVHL (SEQ ID NO: 276)]
≥ 75 | FILEPLYKI [FILEPLYKI (SEQ ID NO: 296)]
50 to 75 | FLLFINHRL [FLLFINHRL (SEQ ID NO: 278)]
50 to 75 | NLAGENILNPL [NLAGENILNPL (SEQ ID NO: 279)]
50 to 75 | FLIDLNSTHGTFL [FLIDLNSTHGTFL (SEQ ID NO: 277)]
≥ 75 | KLYGPEGLELV [KLYGPEGLELV (SEQ ID NO: 294)]
50 to 75 | SLSFVSPSL [SLSFVSPSL (SEQ ID NO: 309)]
50 to 75 | IVLERNPEL [IVLERNPEL (SEQ ID NO: 300)]
50 to 75 | LLLDGLIYL [LLLDGLIYL (SEQ ID NO: 50)]
50 to 75 | SLLETGSDLLL [SLLETGSDLLL (SEQ ID NO: 267)]
≥ 75 | ALTDVILCV [ALTDVILCV (SEQ ID NO: 298)]
20 to 50 | TLLGFFLAKV [TLLGFFLAKV (SEQ ID NO: 4)]
50 to 75 | VLQGLTFTL [VLQGLTFTL (SEQ ID NO: 5)]
50 to 75 | SLLDQIPEM [SLLDQIPEM (SEQ ID NO: 308)]
50 to 75 | ILQNGLETL [ILQNGLETL (SEQ ID NO: 297)]
50 to 75 | ALIRLDDLFL [ALIRLDDLFL (SEQ ID NO: 304)]
≥ 75 | SLLNHLPYL [SLLNHLPYL (SEQ ID NO: 280)]
≥ 75 | TILGDPQILL [TILGDPQILL (SEQ ID NO: 49)]
50 to 75 | IASPVIAAV [IASPVIAAV (SEQ ID NO: 290)]
